Results from the supplement of paper PMC10126150.
± gives the standard deviation of the averaged measurements.

Test system: ATP
Experiment: switch fluorescence ratio, 500 uM ATP over buffer (Cy3 cluster intensity, sum of 5 cycles each) (fold (ratio)); higher = stronger signal-on switching upon ATP binding; sequences stand for … in TCGTCGGCAGCGTCAGATGTGTATAAGAGACAGTTTTTTTTTTTTTTTTTTTTTTTTT…TC
Details: aptamer strand: ATP DNA aptamer (quencher-CACCTGGGGGAGTATTGCGGAGGAAGG + anchor), 100 nM annealed; ATP concentration: 500 uM
Summary of the method: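 Clusters carrying Cy3-labelled switching strands on a modified Illumina MiSeq flow-cell were annealed to 100 nM quencher-labelled ATP aptamer and imaged in selection buffer. They were imaged again after 15 min with 500 uM ATP at 22 °C, over five buffer/ATP cycles with NaOH stripping and re-annealing in between. For each cluster, the fluorescence ratio is the summed Cy3 intensity of the target cycles divided by that of the buffer cycles, averaged per switch-domain sequence. Clusters outside 100-1000 RFU were left out.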
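Also: ATP exposure 15 min at 22 °C before imaging.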

Row | Sequence | switch fluorescence ratio
1 | GGGGGCAGAA | 0.983 ± 0.018
2 | GGGGGCATAA | 1.03 ± 0.076
3 | GGGGGCATGG | 1 ± 0.02
4 | GGGGGCATTG | 0.9933 ± 0.0084
5 | GGGGGCCAGG | 1.02 ± 0.073
6 | GGGGGCGGCT | 1.03 ± 0.056
7 | GGGGGCGGTG | 1 ± 0.038
8 | GGGGGCTATA | 1.001 ± 0.0094
9 | GGGGGCTCAG | 0.9659 ± 0.0052
10 | GGGGGCTTAT | 1.01 ± 0.017
11 | GGGGGGAACG | 0.971 ± 0.024
12 | GGGGGGAAGT | 1.01 ± 0.022
13 | GGGGGGAATT | 1.05 ± 0.1
14 | GGGGGGACAC | 1.031 ± 0.0019
15 | GGGGGGAGAG | 0.989 ± 0.045
16 | GGGGGGAGTT | 0.999 ± 0.038
17 | GGGGGGATAG | 1 ± 0.031
18 | GGGGGGATGG | 1.07 ± 0.23
19 | GGGGGGATTC | 1.01 ± 0.019
20 | GGGGGGCAAC | 1.03 ± 0.099
21 | GGGGGGCAGC | 1 ± 0.017
22 | GGGGGGCATA | 1.01 ± 0.012
23 | GGGGGGCCCA | 1.0208 ± 0.00082
24 | GGGGGGCCCG | 1.35 ± 0.45
25 | GGGGGGCCGA | 1.01 ± 0.03

Row | Sequence | switch fluorescence ratio
26 | GGGGGGCCTA | 0.988 ± 0.046
27 | GGGGGGCGGC | 1.01 ± 0.046
28 | GGGGGGCTCG | 0.973 ± 0.064
29 | GGGGGGCTGT | 0.973 ± 0.047
30 | GGGGGGCTTC | 0.975 ± 0.019
31 | GGGGGGGATA | 1 ± 0.038
32 | GGGGGGGCAC | 1.01 ± 0.029
33 | GGGGGGGGG | 1 ± 0.04
34 | GGGGGGGTAA | 0.993 ± 0.027
35 | GGGGGGGTCC | 0.99 ± 0.025
36 | GGGGGGGTCT | 0.973 ± 0.044
37 | GGGGGGTAA | 1.01 ± 0.019
38 | GGGGGGTAAA | 1.04 ± 0.075
39 | GGGGGGTACC | 1.08 ± 0.13
40 | GGGGGGTAGG | 1.01 ± 0.029
41 | GGGGGGTCAG | 1.01 ± 0.025
42 | GGGGGGTCTC | 0.996 ± 0.029
43 | GGGGGGTGTA | 1 ± 0.055
44 | GGGGGGTTAA | 1.02 ± 0.028
45 | GGGGGGTTGG | 0.989 ± 0.031
46 | GGGGGTAAGG | 0.987 ± 0.034
47 | GGGGGTACAC | 1.01 ± 0.025
48 | GGGGGTACGT | 0.989 ± 0.03
49 | GGGGGTATGG | 0.983 ± 0.032
50 | GGGGGTATGT | 0.997 ± 0.02

Row | Sequence | switch fluorescence ratio
51 | GGGGGTCAGC | 1 ± 0.025
52 | GGGGGTCG | 1.03 ± 0.081
53 | GGGGGTCGCG | 0.991 ± 0.034
54 | GGGGGTCGGG | 1 ± 0.036
55 | GGGGGTGCAG | 0.975 ± 0.011
56 | GGGGGTGGG | 1.03 ± 0.069
57 | GGGGGTGTCA | 0.968 ± 0.0099
58 | GGGGGTTACG | 0.998 ± 0.03
59 | GGGGGTTAGA | 1 ± 0.035
60 | GGGGGTTATA | 0.965 ± 0.016
61 | GGGGGTTCCG | 0.98 ± 0.021
62 | GGGGGTTGCA | 0.965 ± 0.016
63 | GGGGGTTGGG | 1.01 ± 0.043
64 | GGGGGTTTAA | 1.02 ± 0.014
65 | GGGGGTTTGC | 0.991 ± 0.059
66 | GGGGGTTTTG | 0.993 ± 0.038
67 | GGGGTAAGGG | 1 ± 0.028
68 | GGGGTAAGGT | 0.99 ± 0.036
69 | GGGGTAATCA | 0.999 ± 0.018
70 | GGGGTAATCC | 1.07 ± 0.14
71 | GGGGTAATGG | 0.993 ± 0.034
72 | GGGGTACGTA | 1 ± 0.08
73 | GGGGTACGTT | 1 ± 0.032
74 | GGGGTACTAC | 1.003 ± 0.0053
75 | GGGGTAGCCT | 1 ± 0.04

Row | Sequence | switch fluorescence ratio
76 | GGGGTAGGTG | 1.08 ± 0.068
77 | GGGGTAGTGG | 0.981 ± 0.05
78 | GGGGTAGTTT | 1.02 ± 0.027
79 | GGGGTCACGG | 1.006 ± 0.0027
80 | GGGGTCAGCC | 1.06 ± 0.13
81 | GGGGTCCAAG | 1 ± 0.017
82 | GGGGTCGACG | 1.033 ± 0.0092
83 | GGGGTCGGGC | 0.998 ± 0.015
84 | GGGGTCGGTT | 1.01 ± 0.051
85 | GGGGTGAATG | 0.974 ± 0.04
86 | GGGGTGACGG | 1.004 ± 0.0055
87 | GGGGTGAGGG | 0.971 ± 0.032
88 | GGGGTGAGTT | 0.931 ± 0.072
89 | GGGGTGATCT | 1.02 ± 0.034
90 | GGGGTGATGC | 1.07 ± 0.061
91 | GGGGTGATGG | 1.02 ± 0.02
92 | GGGGTGATGT | 0.9803 ± 0.0066
93 | GGGGTGCTAT | 1.01 ± 0.043
94 | GGGGTGGCCA | 0.99 ± 0.0098
95 | GGGGTGGGCG | 1.01 ± 0.058
96 | GGGGTGGTTA | 0.9948 ± 0.005
97 | GGGGTGTCGG | 1.05 ± 0.14
98 | GGGGTGTGTG | 0.986 ± 0.021
99 | GGGGTGTTTG | 0.981 ± 0.022
100 | GGGGTTAAAA | 0.973 ± 0.024

Row | Sequence | switch fluorescence ratio
101 | GGGGTTAAGG | 0.978 ± 0.029
102 | GGGGTTAAGT | 0.98 ± 0.014
103 | GGGGTTAATA | 1 ± 0.067
104 | GGGGTTACGC | 1.03 ± 0.059
105 | GGGGTTAGGA | 0.979 ± 0.019
106 | GGGGTTATGT | 0.979 ± 0.021
107 | GGGGTTATTT | 0.988 ± 0.038
108 | GGGGTTCAGC | 0.978 ± 0.038
109 | GGGGTTCCGG | 0.941 ± 0.032
110 | GGGGTTCTGA | 0.974 ± 0.032
111 | GGGGTTGGAA | 0.9873 ± 0.0056
112 | GGGGTTGGG | 1.015 ± 0.0031
113 | GGGGTTGGGC | 1 ± 0.028
114 | GGGGTTGTAA | 0.9938 ± 0.0056
115 | GGGGTTTACT | 1.01 ± 0.021
116 | GGGGTTTGCT | 0.973 ± 0.033
117 | GGGGTTTGTA | 0.98 ± 0.027
118 | GGGGTTTTCC | 1.01 ± 0.014
119 | GGGGTTTTTA | 0.995 ± 0.034
120 | GGGTAAGATG | 0.992 ± 0.016
121 | GGGTAAGGTG | 1.3 ± 0.091
122 | GGGTAAGGTT | 0.985 ± 0.028
123 | GGGTAAGTTG | 0.962 ± 0.05
124 | GGGTAATAAA | 1.019 ± 0.0052
125 | GGGTACCTGT | 1.01 ± 0.034

Row | Sequence | switch fluorescence ratio
126 | GGGTACTAGT | 1.05 ± 0.023
127 | GGGTACTGAT | 1.01 ± 0.024
128 | GGGTACTTTT | 1 ± 0.0091
129 | GGGTAGAGGA | 0.99 ± 0.03
130 | GGGTAGAGTG | 1.006 ± 0.0019
131 | GGGTAGCTAT | 0.9739 ± 0.0049
132 | GGGTAGGGGC | 1.02 ± 0.026
133 | GGGTAGTGTA | 0.995 ± 0.012
134 | GGGTATAACG | 0.974 ± 0.035
135 | GGGTATAGTT | 0.992 ± 0.024
136 | GGGTATCGAG | 1.01 ± 0.019
137 | GGGTATGAGG | 0.976 ± 0.032
138 | GGGTATGCAA | 1.001 ± 0.0093
139 | GGGTATGCGA | 0.984 ± 0.015
140 | GGGTATGGAG | 1.02 ± 0.02
141 | GGGTATGGGA | 0.99 ± 0.017
142 | GGGTATGGGC | 0.955 ± 0.014
143 | GGGTATGTGA | 0.961 ± 0.037
144 | GGGTATTACT | 1.03 ± 0.017
145 | GGGTATTATA | 0.996 ± 0.03
146 | GGGTATTATG | 1.02 ± 0.028
147 | GGGTCAATAG | 1.42 ± 0.051
148 | GGGTCACGTT | 0.997 ± 0.032
149 | GGGTCAGACG | 1.06 ± 0.086
150 | GGGTCATTAA | 0.9905 ± 0.0088

Row | Sequence | switch fluorescence ratio
151 | GGGTCCAGGG | 1.228 ± 0.0082
152 | GGGTCCTACG | 1.12 ± 0.037
153 | GGGTCGGATG | 1.03 ± 0.033
154 | GGGTCGGGGC | 1.02 ± 0.017
155 | GGGTCGGGGG | 0.994 ± 0.04
156 | GGGTCTAATT | 0.9917 ± 0.0014
157 | GGGTCTCGTT | 1.01 ± 0.013
158 | GGGTCTGACT | 0.9998 ± 0.0017
159 | GGGTCTGTAA | 1.42 ± 0.61
160 | GGGTCTTGGG | 0.9482 ± 0.008
161 | GGGTGAAACA | 0.987 ± 0.069
162 | GGGTGAAAGC | 1 ± 0.017
163 | GGGTGAACTC | 0.988 ± 0.031
164 | GGGTGACGAG | 1 ± 0.038
165 | GGGTGACGCG | 1.01 ± 0.022
166 | GGGTGATCCT | 1.02 ± 0.073
167 | GGGTGATGGG | 0.977 ± 0.032
168 | GGGTGCAGGC | 0.675 ± 0.032
169 | GGGTGCATAG | 1.03 ± 0.045
170 | GGGTGCCAGT | 0.963 ± 0.011
171 | GGGTGCCGGG | 0.911 ± 0.12
172 | GGGTGCCGTG | 1.03 ± 0.047
173 | GGGTGCGCGT | 0.977 ± 0.011
174 | GGGTGCGGAG | 0.956 ± 0.035
175 | GGGTGCGGCG | 0.968 ± 0.035

Row | Sequence | switch fluorescence ratio
176 | GGGTGCTTTG | 1.02 ± 0.029
177 | GGGTGGAAAG | 0.984 ± 0.041
178 | GGGTGGCCTA | 1 ± 0.015
179 | GGGTGGCGCC | 0.988 ± 0.012
180 | GGGTGGGAGT | 1.026 ± 0.0097
181 | GGGTGGGATT | 0.986 ± 0.018
182 | GGGTGGGCGC | 1.01 ± 0.058
183 | GGGTGGGGAA | 0.963 ± 0.075
184 | GGGTGGGGTT | 0.991 ± 0.017
185 | GGGTGGTTGG | 0.999 ± 0.0088
186 | GGGTGTAATT | 1 ± 0.016
187 | GGGTGTACAA | 0.98 ± 0.019
188 | GGGTGTACGG | 1.04 ± 0.024
189 | GGGTGTATGG | 0.981 ± 0.012
190 | GGGTGTGAAC | 0.9859 ± 0.0046
191 | GGGTGTGGAC | 1.04 ± 0.023
192 | GGGTGTGGAG | 1.01 ± 0.012
193 | GGGTGTGGTA | 0.9967 ± 0.0096
194 | GGGTGTTCTG | 1.01 ± 0.018
195 | GGGTGTTGCT | 1 ± 0.017
196 | GGGTGTTTGG | 1.03 ± 0.026
197 | GGGTTAAGTT | 1 ± 0.027
198 | GGGTTAATAT | 1.04 ± 0.055
199 | GGGTTAATCT | 0.9983 ± 0.0016
200 | GGGTTAATTC | 1.03 ± 0.088
